Experimental data: patent US20220315967A1, “METHODS FOR PRODUCING D-TRYPTOPHAN AND SUBSTITUTED D-TRYPTOPHANS” (priority 2019, published 2022)

Columns and labels:
[1] = target: T1, IvoA(C^0) mutant (H1428A)
T1 chain: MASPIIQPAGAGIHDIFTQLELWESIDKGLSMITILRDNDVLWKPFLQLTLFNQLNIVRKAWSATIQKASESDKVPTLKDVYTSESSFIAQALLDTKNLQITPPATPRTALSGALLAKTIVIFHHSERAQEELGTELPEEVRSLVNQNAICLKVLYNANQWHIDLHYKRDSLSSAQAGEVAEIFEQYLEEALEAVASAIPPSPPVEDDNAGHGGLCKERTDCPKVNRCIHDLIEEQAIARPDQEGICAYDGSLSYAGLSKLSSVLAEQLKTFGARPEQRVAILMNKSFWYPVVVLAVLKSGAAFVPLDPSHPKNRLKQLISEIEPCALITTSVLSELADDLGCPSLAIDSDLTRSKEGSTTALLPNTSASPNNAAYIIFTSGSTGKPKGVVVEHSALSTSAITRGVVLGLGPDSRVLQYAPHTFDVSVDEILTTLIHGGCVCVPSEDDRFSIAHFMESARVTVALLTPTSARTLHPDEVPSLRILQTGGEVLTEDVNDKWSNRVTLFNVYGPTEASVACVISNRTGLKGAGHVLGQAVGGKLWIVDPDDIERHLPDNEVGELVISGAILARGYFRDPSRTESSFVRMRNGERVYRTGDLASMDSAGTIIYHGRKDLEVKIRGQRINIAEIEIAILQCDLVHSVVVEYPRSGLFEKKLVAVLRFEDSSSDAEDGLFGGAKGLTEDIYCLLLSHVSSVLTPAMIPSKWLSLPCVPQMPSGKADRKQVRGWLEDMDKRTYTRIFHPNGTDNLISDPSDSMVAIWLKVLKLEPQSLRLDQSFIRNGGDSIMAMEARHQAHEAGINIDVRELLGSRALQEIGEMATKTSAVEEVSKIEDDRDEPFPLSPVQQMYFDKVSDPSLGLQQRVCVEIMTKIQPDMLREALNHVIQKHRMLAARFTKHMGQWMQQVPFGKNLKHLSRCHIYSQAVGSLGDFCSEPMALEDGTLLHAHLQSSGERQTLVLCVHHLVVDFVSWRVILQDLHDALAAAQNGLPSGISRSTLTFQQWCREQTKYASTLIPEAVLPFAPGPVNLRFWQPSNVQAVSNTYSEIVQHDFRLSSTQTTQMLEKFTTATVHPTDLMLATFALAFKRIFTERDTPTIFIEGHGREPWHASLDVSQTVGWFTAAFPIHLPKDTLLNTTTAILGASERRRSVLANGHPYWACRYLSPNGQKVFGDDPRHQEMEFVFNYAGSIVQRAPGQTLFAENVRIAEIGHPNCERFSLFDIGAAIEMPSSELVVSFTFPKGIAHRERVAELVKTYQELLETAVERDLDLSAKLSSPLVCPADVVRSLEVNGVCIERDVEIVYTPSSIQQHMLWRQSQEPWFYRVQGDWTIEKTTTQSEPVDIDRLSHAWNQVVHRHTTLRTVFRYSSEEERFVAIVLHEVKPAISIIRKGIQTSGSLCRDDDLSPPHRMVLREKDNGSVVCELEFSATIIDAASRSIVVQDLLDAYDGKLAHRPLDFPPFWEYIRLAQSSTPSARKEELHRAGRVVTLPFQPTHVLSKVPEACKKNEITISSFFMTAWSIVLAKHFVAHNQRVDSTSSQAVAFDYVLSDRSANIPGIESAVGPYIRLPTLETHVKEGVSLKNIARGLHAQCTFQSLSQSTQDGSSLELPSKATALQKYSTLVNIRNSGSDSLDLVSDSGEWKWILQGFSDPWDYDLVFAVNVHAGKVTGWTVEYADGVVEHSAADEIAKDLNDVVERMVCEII

[2] = target: T2, IvoA-ΔC truncation mutant
T2 chain: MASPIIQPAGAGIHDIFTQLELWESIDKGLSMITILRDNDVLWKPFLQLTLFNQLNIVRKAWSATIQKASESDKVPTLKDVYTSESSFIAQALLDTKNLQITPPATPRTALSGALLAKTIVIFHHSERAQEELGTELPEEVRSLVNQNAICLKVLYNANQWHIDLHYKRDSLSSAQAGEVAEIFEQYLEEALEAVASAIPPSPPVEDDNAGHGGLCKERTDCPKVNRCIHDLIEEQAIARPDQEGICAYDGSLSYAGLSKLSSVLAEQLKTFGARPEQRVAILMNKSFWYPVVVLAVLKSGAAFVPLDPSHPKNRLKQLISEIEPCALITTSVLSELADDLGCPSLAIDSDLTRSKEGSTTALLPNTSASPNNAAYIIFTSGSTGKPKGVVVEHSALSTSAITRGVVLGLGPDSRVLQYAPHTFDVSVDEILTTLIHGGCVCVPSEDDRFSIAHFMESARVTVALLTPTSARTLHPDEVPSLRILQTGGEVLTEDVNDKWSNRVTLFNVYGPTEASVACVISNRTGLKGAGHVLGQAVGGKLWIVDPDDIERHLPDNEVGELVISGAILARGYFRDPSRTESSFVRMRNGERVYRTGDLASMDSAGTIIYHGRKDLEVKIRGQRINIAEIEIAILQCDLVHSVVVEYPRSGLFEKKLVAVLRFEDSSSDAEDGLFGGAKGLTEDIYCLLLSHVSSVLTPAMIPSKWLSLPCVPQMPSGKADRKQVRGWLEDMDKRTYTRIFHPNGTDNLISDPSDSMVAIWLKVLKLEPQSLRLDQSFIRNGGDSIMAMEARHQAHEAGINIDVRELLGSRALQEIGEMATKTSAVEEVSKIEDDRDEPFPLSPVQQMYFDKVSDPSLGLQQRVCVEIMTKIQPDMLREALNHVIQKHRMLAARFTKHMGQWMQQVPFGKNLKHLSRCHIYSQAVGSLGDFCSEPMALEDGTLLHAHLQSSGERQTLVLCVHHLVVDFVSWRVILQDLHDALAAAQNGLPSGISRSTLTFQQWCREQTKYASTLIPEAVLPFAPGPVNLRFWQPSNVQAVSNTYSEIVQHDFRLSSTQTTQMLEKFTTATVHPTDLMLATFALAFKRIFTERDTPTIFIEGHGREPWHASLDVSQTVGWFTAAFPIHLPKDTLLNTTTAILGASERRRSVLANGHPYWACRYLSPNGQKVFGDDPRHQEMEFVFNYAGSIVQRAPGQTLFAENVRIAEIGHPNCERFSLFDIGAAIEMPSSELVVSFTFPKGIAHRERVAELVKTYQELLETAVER

B1: standalone IvoA-C (condensation (C) domain of Aspergillus nidulans single-module NRPS IvoA) (protein)
chain: DLDLSAKLSSPLVCPADVVRSLEVNGVCIERDVEIVYTPSSIQQHMLWRQSQEPWFYRVQGDWTIEKTTTQSEPVDIDRLSHAWNQVVHRHTTLRTVFRYSSEEERFVAIVLHEVKPAISIIRKGIQTSGSLCRDDDLSPPHRMVLREKDNGSVVCELEFSHTIIDAASRSIVVQDLLDAYDGKLAHRPLDFPPFWEYIRLAQSSTPSARKEELHRAGRVVTLPFQPTHVLSKVPEACKKNEITISSFFMTAWSIVLAKHFVAHNQRVDSTSSQAVAFDYVLSDRSANIPGIESAVGPYIRLPTLETHVKEGVSLKNIARGLHAQCTFQSLSQSTQDGSSLELPSKATALQKYSTLVNIRNSGSDSLDLVSDSGEWKWILQGFSDPWDYDLVFAVNVHAGKVTGWTVEYADGVVEHSAADEIAKDLNDVVERMVCEII
- stereoinversion activity (complementation in trans) [1]: Addition of IvoA-C in equimolar to either IvoA(C^0) mutant or IvoA-ΔC truncation mutant successfully rescued the impaired stereoinversion activity
- stereoinversion activity (complementation in trans) [2]: Addition of IvoA-C in equimolar to either IvoA(C^0) mutant or IvoA-ΔC truncation mutant successfully rescued the impaired stereoinversion activity
